Measured values as given in patent US7067109.

Biological target: anti-VCAM-1•tTF coaguligand (anti-VCAM-1 antibody covalently linked through SMPT to truncated tissue factor) (human) (UniProt P13726)
Test: 125I-labeled 10H10 on anti-VCAM-1•tTF-treated IL-1α-activated bEnd.3 cells

UniProt P13726, sequence (P13726 other isoform, or with tags, fused parts or gaps): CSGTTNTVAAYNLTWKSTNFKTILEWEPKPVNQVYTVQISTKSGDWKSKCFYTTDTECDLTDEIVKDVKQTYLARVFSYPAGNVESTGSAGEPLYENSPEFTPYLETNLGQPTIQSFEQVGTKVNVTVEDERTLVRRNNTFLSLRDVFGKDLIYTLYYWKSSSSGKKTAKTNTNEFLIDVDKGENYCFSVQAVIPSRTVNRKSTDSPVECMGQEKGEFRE

amount of antibody bound to the cells at saturation: 8.7 fmol | molecules of antibody bound per cell at saturation (molecules per cell): 540000
Substance: 10H10, mouse monoclonal antibody against human tissue factor
